Results published in publication PMC2665295 (Biochemistry, 2008).
Where two headings read alike, the source gives them in different places.

Assays:
Experiment in all cases: ITC
[1] = biological target: T1, CaMN composed of amino acids 1–75 (UniProt P0DP23 2-76)
[2] = biological target: T2, CaMN composed of amino acids 1–80 (UniProt P0DP23 2-81)
[3] = biological target: T3, CaMC composed of amino acids 76–148 (UniProt P0DP23 77-149)
[4] = biological target: T1, CaMN composed of amino acids 1–75; remark: listed apart in the source
[5] = biological target: T2, CaMN composed of amino acids 1–80; remark: listed apart in the source
[6] = biological target: T3, CaMC composed of amino acids 76–148; remark: listed apart in the source
wild-type calmodulin = wild-type calmodulin (UniProt P0DP23 1-149)
[7] = biological target: T1, CaMN composed of amino acids 1–75; remark: listed apart in the source
[8] = biological target: T2, CaMN composed of amino acids 1–80; remark: listed apart in the source
[9] = biological target: T3, CaMC composed of amino acids 76–148; remark: listed apart in the source
[10] = biological target: T1, CaMN composed of amino acids 1–75; remark: listed apart in the source
[11] = biological target: T2, CaMN composed of amino acids 1–80; remark: listed apart in the source
[12] = biological target: T3, CaMC composed of amino acids 76–148; remark: listed apart in the source

Ac-KKFNARRKLKGAILTTMLATRN-NH2 [CaMKII(291–312) peptide]
Kd [1]: 280 nM | dH [1]: 1.9 kcal/mol | dH1 (binding mode 1) [2]: 3.9 kcal/mol | dH2 (binding mode 2) [2]: 5.7 kcal/mol | dH1 (binding mode 1) [3]: -3.6 kcal/mol | dH2 (binding mode 2) [3]: 6.8 kcal/mol | Kd [4]: 500 nM | dH [4]: -0.2 kcal/mol | dH1 (binding mode 1) [5]: -0.3 kcal/mol | dH2 (binding mode 2) [5]: 2.4 kcal/mol | dH1 (binding mode 1) [6]: -7.7 kcal/mol | dH2 (binding mode 2) [6]: 7.6 kcal/mol | Kd (wild-type calmodulin): 0.07 pM | dH (wild-type calmodulin): -6.1 kcal/mol | Kd [7]: 360 nM | dH [7]: -2.5 kcal/mol | dH1 (binding mode 1) [8]: -3.1 kcal/mol | dH2 (binding mode 2) [8]: -3.8 kcal/mol | dH1 (binding mode 1) [9]: -11.8 kcal/mol | dH2 (binding mode 2) [9]: 5.4 kcal/mol | Kd [10]: 710 nM | dH [10]: -5.1 kcal/mol | dH1 (binding mode 1) [11]: -6.5 kcal/mol | dH2 (binding mode 2) [11]: -8.5 kcal/mol | dH1 (binding mode 1) [12]: -15.5 kcal/mol | dH2 (binding mode 2) [12]: 1.7 kcal/mol
